According to PMC4176333:
Read-outs that look alike come from different tables or passages of the source.

What was measured:
[1] = molecular target: T1, Hera_core (UniProt Q72GF3 1-365); test: fluorescence intensity titration
T1 sequence: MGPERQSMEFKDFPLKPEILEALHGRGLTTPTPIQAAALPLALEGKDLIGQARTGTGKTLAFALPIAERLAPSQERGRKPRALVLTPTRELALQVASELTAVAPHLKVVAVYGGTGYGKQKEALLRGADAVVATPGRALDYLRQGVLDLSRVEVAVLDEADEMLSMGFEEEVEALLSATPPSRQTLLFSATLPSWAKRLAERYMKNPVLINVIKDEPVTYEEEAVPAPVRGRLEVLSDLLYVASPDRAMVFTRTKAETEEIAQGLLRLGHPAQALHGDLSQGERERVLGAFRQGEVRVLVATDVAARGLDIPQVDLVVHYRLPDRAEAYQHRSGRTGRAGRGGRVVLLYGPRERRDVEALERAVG

[2] = molecular target: T2, Hera RecA_N (UniProt Q72GF3 1-207); test: fluorescence intensity titration
T2 sequence: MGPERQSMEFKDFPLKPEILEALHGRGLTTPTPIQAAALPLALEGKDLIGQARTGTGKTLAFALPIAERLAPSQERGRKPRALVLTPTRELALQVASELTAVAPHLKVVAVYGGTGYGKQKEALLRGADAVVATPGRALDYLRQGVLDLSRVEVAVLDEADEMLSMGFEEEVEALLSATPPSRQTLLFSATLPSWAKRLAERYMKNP

[3] = molecular target: T3, Hera RecA_C (UniProt Q72GF3 208-369); test: fluorescence intensity titration
T3 sequence: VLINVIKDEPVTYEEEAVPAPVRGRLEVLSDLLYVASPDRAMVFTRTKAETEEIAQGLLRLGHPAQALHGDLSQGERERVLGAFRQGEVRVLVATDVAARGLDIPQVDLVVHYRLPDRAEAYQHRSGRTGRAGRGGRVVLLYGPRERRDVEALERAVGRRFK

[4] = molecular target: T4, YxiN_core (UniProt P42305 1-368); test: fluorescence intensity titration
T4 sequence: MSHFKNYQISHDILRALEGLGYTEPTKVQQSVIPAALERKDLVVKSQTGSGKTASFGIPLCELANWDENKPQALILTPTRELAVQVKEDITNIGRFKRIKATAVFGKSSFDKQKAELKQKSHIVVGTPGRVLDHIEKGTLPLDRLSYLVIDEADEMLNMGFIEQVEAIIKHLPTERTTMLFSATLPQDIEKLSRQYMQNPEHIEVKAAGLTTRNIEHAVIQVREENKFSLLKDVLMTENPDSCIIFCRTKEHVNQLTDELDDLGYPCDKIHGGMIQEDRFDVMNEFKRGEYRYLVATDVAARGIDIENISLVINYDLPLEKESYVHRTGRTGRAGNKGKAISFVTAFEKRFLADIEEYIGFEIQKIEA

[5] = molecular target: T5, YxiN RecA_N (UniProt P42305 1-206); test: fluorescence anisotropy
T5 sequence: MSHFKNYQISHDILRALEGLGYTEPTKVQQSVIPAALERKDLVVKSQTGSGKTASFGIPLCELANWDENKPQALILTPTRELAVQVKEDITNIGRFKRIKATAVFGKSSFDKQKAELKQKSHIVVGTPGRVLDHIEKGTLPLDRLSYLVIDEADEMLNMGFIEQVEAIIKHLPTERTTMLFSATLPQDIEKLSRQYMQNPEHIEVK

[6] = molecular target: T6, YxiN RecA_C (UniProt P42305 211-370); test: fluorescence anisotropy
T6 sequence: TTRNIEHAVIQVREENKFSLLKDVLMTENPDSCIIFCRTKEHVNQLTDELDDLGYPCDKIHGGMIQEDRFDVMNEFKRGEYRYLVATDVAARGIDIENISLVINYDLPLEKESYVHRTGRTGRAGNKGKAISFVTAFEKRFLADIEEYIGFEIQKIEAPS

[7] = molecular target: T1, Hera_core; test: fluorescence intensity titration; remark: listed apart in the source

B1: 14mer dsRNA (dsRNA)
RNA 1: GGGCGGGCCCGCCC
RNA 2: GGGCGGGCCCGCCC
What does the source list for B1?
Kd [1]: 7 ± 3 nM; Kd [2]: 889 ± 236 nM; Kd [3]: 327 ± 161 nM; Kd [4]: 2 nM; binding result [5]: no binding; binding result [6]: no binding; Kd [7]: 15.1 nM
